{"source": "patent US20220023333A1", "about": "“METHOD FOR INCREASING CANCER PATIENT'S HAEMOGLOBIN LEVEL” (priority 2019, published 2022)", "assay": "Blood haemoglobin level in cancer patients (case examples 1-9)", "assay_type": "in vivo, human", "source_text": "[…] Diagnosis: progressive diffuse-nodular multiple myeloma of the stage IIIB. Myelogenic nephropathy, stage III CKD, terminal stage. Chronic programmed dialysis. The initial level of haemoglobin was 72 g/l. The receiving of EPO 20000 IU and iron preparations was prescribed for a month, as a result of which the level of haemoglobin increased to 84 g/l. However, the patient's condition worsened, and there were diagnosed acute transmural myocardial infarction and weight loss in the patient. The patient was prescribed the administration of 30 ml of the sterile pyrogen-free aqueous solution of the poloxamer comprising 13.3 wt % poloxamer-188 (Emuxol-268 of Grade “A”) and water for injection as the remaining part for 30 days. The level of haemoglobin was 116 g/l. Then, 30 ml of the said poloxamer solution was administered to the patient on a daily basis during 9 courses of chemotherapy (cyclophosphan and boramilane), while EPO and iron preparations were no longer prescribed. The level of haemoglobin was maintained in the range of 116-125 g/l.\n[…] Diagnosis: locally advanced or metastatic bladder cancer of the 4t^h stage with lumbar vertebral metastases. The initial level of haemoglobin was 129 g/l.\nImmunotherapy 1: the patient underwent a course of the therapy with the nivolumab preparation (Opdivo) for 4 months. […]", "data": [{"substance": "nivolumab", "values": [{"measurement": "level of haemoglobin after therapy", "setting": "Example 2, Patient A, bladder cancer 4th stage, nivolumab (Opdivo) for 4 months with regular donated red blood cell transfusion, initial level 129 g/l", "value": 123000, "unit": "µg/mL"}, {"measurement": "level of haemoglobin after 1 course", "setting": "Example 5, Patient D, right kidney tumor with metastases, nivolumab (Opdivo) immunotherapy, 1 course, initial level 148 g/l", "value": 104000, "unit": "µg/mL"}]}]}
